Data set [1] has as its target T1, His-tagged NIN-LIKE PROTEIN 7 (His-NLP7) (Arabidopsis thaliana, UniProt Q84TH9 1-959).
T1 sequence (looked up): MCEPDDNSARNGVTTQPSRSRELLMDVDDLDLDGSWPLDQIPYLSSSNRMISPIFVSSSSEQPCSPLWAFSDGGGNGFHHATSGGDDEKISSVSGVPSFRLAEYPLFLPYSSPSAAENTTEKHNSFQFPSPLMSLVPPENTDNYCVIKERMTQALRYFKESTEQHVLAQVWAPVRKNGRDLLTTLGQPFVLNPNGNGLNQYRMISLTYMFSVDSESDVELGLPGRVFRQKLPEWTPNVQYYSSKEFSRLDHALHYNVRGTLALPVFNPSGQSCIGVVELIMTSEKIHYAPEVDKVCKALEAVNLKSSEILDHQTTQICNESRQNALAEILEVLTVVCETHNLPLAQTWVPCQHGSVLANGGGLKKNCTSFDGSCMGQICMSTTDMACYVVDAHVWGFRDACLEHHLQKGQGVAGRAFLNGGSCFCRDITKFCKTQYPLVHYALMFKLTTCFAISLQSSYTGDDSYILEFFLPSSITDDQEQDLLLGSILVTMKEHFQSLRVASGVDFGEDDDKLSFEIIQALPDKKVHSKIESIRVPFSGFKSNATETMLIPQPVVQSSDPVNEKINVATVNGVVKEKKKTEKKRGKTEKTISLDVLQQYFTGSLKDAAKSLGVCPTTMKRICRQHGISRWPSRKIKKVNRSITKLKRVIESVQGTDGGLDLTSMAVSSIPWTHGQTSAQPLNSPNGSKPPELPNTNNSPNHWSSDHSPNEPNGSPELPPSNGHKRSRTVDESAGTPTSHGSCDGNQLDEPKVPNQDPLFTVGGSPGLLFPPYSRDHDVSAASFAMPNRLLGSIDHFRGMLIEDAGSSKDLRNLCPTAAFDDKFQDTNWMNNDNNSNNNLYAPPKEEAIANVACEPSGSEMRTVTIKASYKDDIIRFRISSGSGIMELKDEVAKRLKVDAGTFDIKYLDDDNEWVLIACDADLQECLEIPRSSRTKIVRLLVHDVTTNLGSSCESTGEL
The data set can be described thus: pull-down.

In another data set the target is His-NLP7 (RWP-RK) (Arabidopsis thaliana, UniProt Q84TH9 535-733). The data set can be described thus: EMSA. (In general: In EMSA bound probe runs differently from free probe, usually more slowly.)

B1: GST-tagged CALCIUM-DEPENDENT PROTEIN KINASE 28 (GST-CPK28) (enzyme, Arabidopsis thaliana, UniProt Q9FKW4 1-523, looked up)
chain: MGVCFSAIRVTGASSSRRSSQTKSKAAPTPIDTKASTKRRTGSIPCGKRTDFGYSKDFHDHYTIGKLLGHGQFGYTYVAIHRPNGDRVAVKRLDKSKMVLPIAVEDVKREVQILIALSGHENVVQFHNAFEDDDYVYIVMELCEGGELLDRILSKKGNRYSEKDAAVVVRQMLKVAGECHLHGLVHRDMKPENFLFKSAQLDSPLKATDFGLSDFIKPGKRFHDIVGSAYYVAPEVLKRRSGPESDVWSIGVITYILLCGRRPFWDRTEDGIFKEVLRNKPDFSRKPWATISDSAKDFVKKLLVKDPRARLTAAQALSHAWVREGGNATDIPVDISVLNNLRQFVRYSRLKQFALRALASTLDEAEISDLRDQFDAIDVDKNGVISLEEMRQALAKDLPWKLKDSRVAEILEAIDSNTDGLVDFTEFVAAALHVHQLEEHDSEKWQLRSRAAFEKFDLDKDGYITPEELRMHTGLRGSIDPLLDEADIDRDGKISLHEFRRLLRTASISSQRAPSPAGHRNLR
As for B1, the binding result in data set [1] is listed as “binds”.

B2: CBF1-NREL probe (dsDNA)
DNA 1: AAAAGTCTCTTTACAAGGGTCAAA
DNA 2: TTTGACCCTTGTAAAGAGACTTTT
On to B2, for which, in the data set with His-NLP7 (RWP-RK), the binding result is listed as “binds”.

These data come from article PMC9242591 (Science Advances, 2022).
